# Measured values as given in patent US20130209454A1.
# Key:
# Assay in all cases: cell-based or functional assay
# [1] = target: HIV-1 Env of strain X1254_c3 (HIV-1)
# [2] = target: HIV-1 Env of strain THRO4156.18 (HIV-1)
# [3] = target: HIV-1 strain 6535.3 envelope (gp120) (HIV-1)
# [4] = target: HIV-1 strain 6811.v7.c18 envelope (gp120) (HIV-1)
# [5] = target: HIV-1 strain SC422661.8 envelope (gp120) (HIV-1)
# [6] = target: HIV-1 Env of strain 1006_11_C3_1601 (HIV-1)
# [7] = target: HIV-1 Env of strain CAAN5342.A2 (HIV-1)
# [8] = target: HIV-1 Env of strain 62357_14_D3_4589 (HIV-1)
# [9] = target: HIV-1 strain CNE30 envelope (gp120) (HIV-1)
# [10] = target: HIV-1 Env of strain 89-F1_2_25 (HIV-1)
# [11] = target: HIV-1 strain Ce703010054_2A2 envelope (gp120) (HIV-1)
# [12] = target: HIV-1 Env of strain 928-28 (HIV-1)
# [13] = target: HIV-1 strain Q461.e2 envelope (gp120) (HIV-1)
# [14] = target: HIV-1 strain Ce0682_E4 envelope (gp120) (HIV-1)
# [15] = target: HIV-1 strain WEAU_d15_410_787 envelope (gp120) (HIV-1)
# [16] = target: HIV-1 Env of strain Q769.d22 (HIV-1)
# [17] = target: HIV-1 Env of strain 703357.C02 (HIV-1)
# [18] = target: HIV-1 strain Q769.d22 envelope (gp120) (HIV-1)
# [19] = target: HIV-1 strain 211-9 envelope (gp120) (HIV-1)
# [20] = target: HIV-1 Env of strain ZM247v1(Rev-) (HIV-1)
# [21] = target: HIV-1 strain 928-28 envelope (gp120) (HIV-1)
# [22] = target: HIV-1 Env of strain Ce703010054_2A2 (HIV-1)
# [23] = target: HIV-1 strain REJO4541.67 envelope (gp120) (HIV-1)
# [24] = target: HIV-1 Env of strain RHPA4259.7 (HIV-1)
# [25] = target: HIV-1 Env of strain T257-31 (HIV-1)
# [26] = target: HIV-1 strain Ce2060_G9 envelope (gp120) (HIV-1)
# [27] = target: HIV-1 strain P0402_c2_11 envelope (gp120) (HIV-1)
# [28] = target: HIV-1 Env of strain 6535.3 (HIV-1)
# [29] = target: HIV-1 strain ZM247v1(Rev-) envelope (gp120) (HIV-1)
# [30] = target: HIV-1 strain X1254_c3 envelope (gp120) (HIV-1)
# [31] = target: HIV-1 strain 1006_11_C3_1601 envelope (gp120) (HIV-1)
# [32] = target: HIV-1 strain 703357.C02 envelope (gp120) (HIV-1)
# [33] = target: HIV-1 strain T250-4 envelope (gp120) (HIV-1)
# [34] = target: HIV-1 strain CAP45.2.00.G3 envelope (gp120) (HIV-1)
# [35] = target: HIV-1 Env of strain 1054_07_TC4_1499 (HIV-1)
# [36] = target: HIV-1 Env of strain CNE20 (HIV-1)
# [37] = target: HIV-1 strain 620345.c01 envelope (gp120) (HIV-1)
# [38] = target: HIV-1 Env of strain T255-34 (HIV-1)
# [39] = target: HIV-1 strain TRJO4551.58 envelope (gp120) (HIV-1)
# [40] = target: HIV-1 Env of strain 3301.v1.c24 (HIV-1)
# [41] = target: HIV-1 Env of strain 6545.v4.cl (HIV-1)
# [42] = target: HIV-1 Env of strain Q23.17 (HIV-1)
# [43] = target: HIV-1 Env of strain 231965.c01 (HIV-1)
# [44] = target: HIV-1 Env of strain P1981_C5_3 (HIV-1)
# [45] = target: HIV-1 Env of strain P0402_c2_11 (HIV-1)
# [46] = target: HIV-1 Env of strain REJO4541.67 (HIV-1)
# [47] = target: HIV-1 Env of strain 3718.v3.c11 (HIV-1)
# [48] = target: HIV-1 Env of strain 3415.v1.c1 (HIV-1)
# [49] = target: HIV-1 Env of strain Du422.1 (HIV-1)
# [50] = target: HIV-1 Env of strain X1193_c1 (HIV-1)
binder,measurement,setting,value
"NIH45-46^G54Y IgG (antibody, name in Kabat numbering, V domains shown) VH: QVRLSQSGGQMKKPGESMRLSCRASGYEFLNCPINWIRLAPGRRPEWMGWLKPRYGAVNYARKFQGRVTMTRDVYSDTAFLELRSLTSDDTAVYFCTRGKYCTARDYYNWDFEHWGRGAPVTVSS VL: EIVLTQSPATLSLSPGETAIISCRTSQSGSLAWYQQRPGQAPRLVIYSGSTRAAGIPDRFSGSRWGADYNLSISNLESGDFGVYYCQQYEFFGQGTKVQVDI",neutralization IC50,[1],0.013 µg/mL
same,neutralization IC50,[2],0.66 µg/mL
same,neutralization IC80,[3],0.24 µg/mL
same,neutralization IC80,[4],0.059 µg/mL
same,neutralization IC80,[5],0.09 µg/mL
same,neutralization IC50,[6],0.005 µg/mL
same,neutralization IC50,[7],0.1 µg/mL
same,neutralization IC50,[8],0.03 µg/mL
same,neutralization IC80,[9],0.263 µg/mL
same,neutralization IC50,[10],> 50 µg/mL
same,neutralization IC80,[11],0.07 µg/mL
same,neutralization IC50,[12],0.12 µg/mL
same,neutralization IC80,[13],0.103 µg/mL
same,neutralization IC80,[14],0.065 µg/mL
same,neutralization IC80,[15],0.008 µg/mL
same,neutralization IC50,[16],0.007 µg/mL
same,neutralization IC50,[17],5.6 µg/mL
same,neutralization IC80,[18],0.024 µg/mL
same,neutralization IC80,[19],> 50 µg/mL
same,neutralization IC50,[20],0.42 µg/mL
same,neutralization IC80,[21],0.33 µg/mL
same,neutralization IC50,[22],0.022 µg/mL
same,neutralization IC80,[23],0.02 µg/mL
same,neutralization IC50,[24],0.007 µg/mL
same,neutralization IC50,[25],0.18 µg/mL
same,neutralization IC80,[26],0.068 µg/mL
same,neutralization IC80,[27],0.049 µg/mL
same,neutralization IC50,[28],0.08 µg/mL
same,neutralization IC80,[29],3.57 µg/mL
same,neutralization IC80,[30],0.041 µg/mL
same,neutralization IC80,[31],0.021 µg/mL
same,neutralization IC80,[32],30.6 µg/mL
same,neutralization IC80,[33],> 50 µg/mL
same,neutralization IC80,[34],> 50 µg/mL
same,neutralization IC50,[35],0.064 µg/mL
same,neutralization IC50,[36],0.33 µg/mL
same,neutralization IC80,[37],> 50 µg/mL
same,neutralization IC50,[38],0.04 µg/mL
same,neutralization IC80,[39],0.07 µg/mL
same,neutralization IC50,[40],0.003 µg/mL
same,neutralization IC50,[41],> 50 µg/mL
same,neutralization IC50,[42],0.02 µg/mL
same,neutralization IC50,[43],0.025 µg/mL
same,neutralization IC50,[44],0.04 µg/mL
same,neutralization IC50,[45],0.012 µg/mL
same,neutralization IC50,[46],0.007 µg/mL
same,neutralization IC50,[47],0.3 µg/mL
same,neutralization IC50,[48],< 0.001 µg/mL
same,neutralization IC50,[49],> 50 µg/mL
same,neutralization IC50,[50],0.006 µg/mL
"NIH45-46^G54W (antibody, V domains shown) VH: QVRLSQSGGQMKKPGESMRLSCRASGYEFLNCPINWIRLAPGRRPEWMGWLKPRWGAVNYARKFQGRVTMTRDVYSDTAFLELRSLTSDDTAVYFCTRGKYCTARDYYNWDFEHWGRGAPVTVSS VL: EIVLTQSPATLSLSPGETAIISCRTSQSGSLAWYQQRPGQAPRLVIYSGSTRAAGIPDRFSGSRWGADYNLSISNLESGDFGVYYCQQYEFFGQGTKVQVDI","IC50, pseudovirus neutralization",[1],0.002 µg/mL
same,"IC50, pseudovirus neutralization",[2],0.54 µg/mL
same,"IC50, pseudovirus neutralization",[6],0.001 µg/mL
same,"IC50, pseudovirus neutralization",[7],0.07 µg/mL
same,"IC50, pseudovirus neutralization",[8],0.02 µg/mL
same,"IC50, pseudovirus neutralization",[10],> 50 µg/mL
same,"IC50, pseudovirus neutralization",[12],0.06 µg/mL
same,"IC50, pseudovirus neutralization",[16],0.001 µg/mL
same,"IC50, pseudovirus neutralization",[20],0.32 µg/mL
same,"IC50, pseudovirus neutralization",[22],0.027 µg/mL
same,"IC50, pseudovirus neutralization",[24],0.001 µg/mL
same,"IC50, pseudovirus neutralization",[25],0.13 µg/mL
same,"IC50, pseudovirus neutralization",[28],0.03 µg/mL
same,"IC50, pseudovirus neutralization",[35],0.04 µg/mL
same,"IC50, pseudovirus neutralization",[36],0.04 µg/mL
same,"IC50, pseudovirus neutralization",[38],0.001 µg/mL
same,"IC50, pseudovirus neutralization",[40],0.001 µg/mL
same,"IC50, pseudovirus neutralization",[42],0.01 µg/mL
same,"IC50, pseudovirus neutralization",[43],0.001 µg/mL
same,"IC50, pseudovirus neutralization",[44],0.02 µg/mL
same,"IC50, pseudovirus neutralization",[45],0.003 µg/mL
same,"IC50, pseudovirus neutralization",[46],0.002 µg/mL
same,"IC50, pseudovirus neutralization",[48],0.001 µg/mL
same,"IC50, pseudovirus neutralization",[49],> 50 µg/mL
same,"IC50, pseudovirus neutralization",[50],0.001 µg/mL
"NIH45-46^G54W(HC), S28Y(LC) (antibody, V domains shown) VH: QVRLSQSGGQMKKPGESMRLSCRASGYEFLNCPINWIRLAPGRRPEWMGWLKPRWGAVNYARKFQGRVTMTRDVYSDTAFLELRSLTSDDTAVYFCTRGKYCTARDYYNWDFEHWGRGAPVTVSS VL: EIVLTQSPATLSLSPGETAIISCRTSQYGSLAWYQQRPGQAPRLVIYSGSTRAAGIPDRFSGSRWGADYNLSISNLESGDFGVYYCQQYEFFGQGTKVQVDI","IC50, pseudovirus neutralization",[1],0.006 µg/mL
same,"IC50, pseudovirus neutralization",[2],0.685 µg/mL
same,"IC50, pseudovirus neutralization",[6],0.009 µg/mL
same,"IC50, pseudovirus neutralization",[7],0.078 µg/mL
same,"IC50, pseudovirus neutralization",[8],0.015 µg/mL
same,"IC50, pseudovirus neutralization",[10],> 50 µg/mL
same,"IC50, pseudovirus neutralization",[12],0.045 µg/mL
same,"IC50, pseudovirus neutralization",[16],0.003 µg/mL
same,"IC50, pseudovirus neutralization",[20],0.001 µg/mL
same,"IC50, pseudovirus neutralization",[22],0.016 µg/mL
same,"IC50, pseudovirus neutralization",[24],0.001 µg/mL
same,"IC50, pseudovirus neutralization",[25],0.126 µg/mL
same,"IC50, pseudovirus neutralization",[28],0.015 µg/mL
same,"IC50, pseudovirus neutralization",[35],0.104 µg/mL
same,"IC50, pseudovirus neutralization",[36],0.001 µg/mL
same,"IC50, pseudovirus neutralization",[38],0.013 µg/mL
same,"IC50, pseudovirus neutralization",[40],0.001 µg/mL
same,"IC50, pseudovirus neutralization",[42],0.015 µg/mL
same,"IC50, pseudovirus neutralization",[43],0.001 µg/mL
same,"IC50, pseudovirus neutralization",[44],0.012 µg/mL
same,"IC50, pseudovirus neutralization",[45],0.01 µg/mL
same,"IC50, pseudovirus neutralization",[46],0.001 µg/mL
same,"IC50, pseudovirus neutralization",[48],0.013 µg/mL
same,"IC50, pseudovirus neutralization",[49],8.47 µg/mL
same,"IC50, pseudovirus neutralization",[50],0.008 µg/mL
